Results published in paper PMC6127294, “Jungle Express is a versatile repressor system for tight transcriptional control” (Nature Communications, 2018).

T1: EilR (UniProt A0A346M331 1-192)
T1 sequence: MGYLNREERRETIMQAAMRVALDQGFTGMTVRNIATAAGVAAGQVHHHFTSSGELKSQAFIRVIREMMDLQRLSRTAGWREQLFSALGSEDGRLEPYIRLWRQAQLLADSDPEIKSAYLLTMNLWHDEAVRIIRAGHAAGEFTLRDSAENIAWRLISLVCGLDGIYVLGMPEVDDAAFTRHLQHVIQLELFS

T2: EilR-Y03A/R32A (UniProt A0A346M331 1-192, Y3A;R32A)
T2 sequence: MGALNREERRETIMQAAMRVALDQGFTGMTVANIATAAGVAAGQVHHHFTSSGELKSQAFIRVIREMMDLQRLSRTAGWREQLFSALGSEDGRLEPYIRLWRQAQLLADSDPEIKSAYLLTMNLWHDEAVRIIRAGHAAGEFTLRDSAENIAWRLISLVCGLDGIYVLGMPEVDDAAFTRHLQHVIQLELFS

T3: EilR-H47A (UniProt A0A346M331 1-192, H47A)
T3 sequence: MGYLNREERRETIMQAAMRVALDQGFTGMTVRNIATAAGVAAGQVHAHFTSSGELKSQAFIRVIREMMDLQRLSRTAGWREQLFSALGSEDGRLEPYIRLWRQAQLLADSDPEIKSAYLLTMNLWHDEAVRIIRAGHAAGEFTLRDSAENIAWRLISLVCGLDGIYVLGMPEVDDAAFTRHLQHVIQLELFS

T4: EilR-R32A (UniProt A0A346M331 1-192, R32A)
T4 sequence: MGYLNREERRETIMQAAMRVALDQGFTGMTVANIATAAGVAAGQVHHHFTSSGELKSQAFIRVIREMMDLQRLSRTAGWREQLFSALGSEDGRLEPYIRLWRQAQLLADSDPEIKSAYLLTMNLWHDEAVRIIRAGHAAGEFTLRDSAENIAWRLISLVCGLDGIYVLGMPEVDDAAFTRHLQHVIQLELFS


Experiments:
EilR [1] = target: T1, EilR; assay: EMSA; lower affinity than eilOc; 5 mM MgCl2; Operator EMSA: 30 mM Tris pH 7.7, 100 mM NaCl, 25 mM arginine, 25 mM glutamine, 5 mM MgCl2, RT 1.5 h; mutant EMSA: 50 mM Tris pH 8.0, 150 mM NaCl, 50 mM arginine, 50 mM glutamine, 10 mM MgCl2, 0.5 mM DTT, RT 30 min; 2% agarose TBE gels; settings: protein: recombinant; tags: His8 removed with TEV protease; chain copies: 2
EilR-Y03A/R32A = target: T2, EilR-Y03A/R32A; assay: EMSA; up to 8:1 protein:DNA; 10 mM MgCl2; Operator EMSA: 30 mM Tris pH 7.7, 100 mM NaCl, 25 mM arginine, 25 mM glutamine, 5 mM MgCl2, RT 1.5 h; mutant EMSA: 50 mM Tris pH 8.0, 150 mM NaCl, 50 mM arginine, 50 mM glutamine, 10 mM MgCl2, 0.5 mM DTT, RT 30 min; 2% agarose TBE gels; settings: protein: recombinant; chain copies: 2
EilR-H47A = target: T3, EilR-H47A; assay: as above; settings: protein: recombinant; chain copies: 2
EilR-R32A = target: T4, EilR-R32A; assay: as above; settings: protein: recombinant; chain copies: 2
EilR [2] = target: T1, EilR; assay: EMSA; complex appears from 0.125:1 EilR:DNA; 10 mM MgCl2; Operator EMSA: 30 mM Tris pH 7.7, 100 mM NaCl, 25 mM arginine, 25 mM glutamine, 5 mM MgCl2, RT 1.5 h; mutant EMSA: 50 mM Tris pH 8.0, 150 mM NaCl, 50 mM arginine, 50 mM glutamine, 10 mM MgCl2, 0.5 mM DTT, RT 30 min; 2% agarose TBE gels; settings: protein: recombinant; tags: His8 removed with TEV protease; chain copies: 2

| Binder | binding result (EilR [1]) | binding result (EilR-Y03A/R32A) | binding result (EilR-H47A) | binding result (EilR-R32A) | binding result (EilR [2]) |
| --- | --- | --- | --- | --- | --- |
| eilO2 (dsDNA) DNA 1: CGCAAACTGGACGGATGTCCAGCTTTGT DNA 2: ACAAAGCTGGACATCCGTCCAGTTTGCG | binds |  |  |  |  |
| eilOc 28-mer duplex (dsDNA) DNA 1: AAAAAGTTGGACACGTGTCCAACTTTCC DNA 2: GGAAAGTTGGACACGTGTCCAACTTTTT |  | no binding | no binding | no binding | binds |
